Source: PMC9210681
Where a chain is given by its changes, count along the chain named. Blank lines part the entries; values can stand above or below the substance they belong to.

Experiments:
[1] = molecular target: AtsR (NCgl0886), native protein as run on the size exclusion column (Corynebacterium glutamicum); assay: not stated; reduced AtsR, Additional file 1 Fig. S10A (Purification of AtsR)
[2] = molecular target: AtsR (NCgl0886), native protein as run on the size exclusion column (Corynebacterium glutamicum); assay: SEC; Superdex 200 10/300 GL; AtsR incubated with an oxidant before the run (CHP in the text, H2O2 in the legend); two species, oxidized dimer and native dimer
[3] = molecular target: AtsR (NCgl0886), native protein as run on the size exclusion column (Corynebacterium glutamicum); assay: SEC; Superdex 200 10/300 GL, 50 mM potassium phosphate pH 7.4, 0.15 M NaCl, calibrated with mass markers; native AtsR untreated; AtsR:C123SC187S reduced (20 µM protein with 50 mM DTT)
[4] = tested on: T1, AtsR (NCgl0886) (Corynebacterium glutamicum (RES167 parental strain)), ORF:74efc9ce; assay: EMSA; conditions: 10 mM Tris-HCl pH 7.4 (Fig. 6A legend: pH 8.0), 5 mM MgCl2, 50 mM KCl, 5% glycerol, 0.1% NP40, 1 ug poly(dI:dC), 1 mM DTT, 20 ul, 40 ng DNA, room temperature …
T1 sequence: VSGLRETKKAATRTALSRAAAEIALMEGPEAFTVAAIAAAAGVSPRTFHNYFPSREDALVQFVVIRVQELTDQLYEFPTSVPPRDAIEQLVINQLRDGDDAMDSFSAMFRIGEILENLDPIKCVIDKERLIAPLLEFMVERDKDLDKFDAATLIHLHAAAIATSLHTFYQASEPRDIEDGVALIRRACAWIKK

[5] = tested on: T2, AtsR:C123SC187S C123S;C188S (Corynebacterium glutamicum (RES167 parental strain)), ORF:74efc9ce; assay: EMSA; conditions: 10 mM Tris-HCl pH 7.4 (Fig. 6A legend: pH 8.0), 5 mM MgCl2, 50 mM KCl, 5% glycerol, 0.1% NP40, 1 ug poly(dI:dC), 1 mM DTT, 20 ul, 40 ng DNA, room temperature …
T2 sequence: T1 sequence with C123S, C188S

[6] = molecular target: His6-AtsR (Corynebacterium glutamicum); assay: cross-linking; disulfide bond formed by oxidant: 20 µM protein with 5 mM H2O2 or 4 mM CHP for 30 min, boiled, 15% nonreducing SDS-PAGE, Coomassie stain
[7] = molecular target: His-tag-free AtsR:C123SC187S (Corynebacterium glutamicum); assay: SEC; Superdex 200 10/300 GL, 50 mM potassium phosphate pH 7.4, 0.15 M NaCl, calibrated with mass markers; native AtsR untreated; AtsR:C123SC187S reduced (20 µM protein with 50 mM DTT)
[8] = tested on: AtsR (NCgl0886) (Corynebacterium glutamicum (RES167 parental strain)); assay: EMSA; conditions: apparent KD; 10 mM Tris-HCl pH 7.4 (Fig. 6A legend: pH 8.0), 5 mM MgCl2, 50 mM KCl, 5% glycerol, 0.1% NP40, 1 ug poly(dI:dC), 1 mM DTT, 20 ul, 40 ng DNA, room temperature …
[9] = tested on: AtsR:C123SC187S (Corynebacterium glutamicum (RES167 parental strain)); assay: EMSA; conditions: apparent KD; unit inferred, nM implied from AtsR; 10 mM Tris-HCl pH 7.4 (Fig. 6A legend: pH 8.0), 5 mM MgCl2, 50 mM KCl, 5% glycerol, 0.1% NP40, 1 ug poly(dI:dC), 1 mM DTT, 20 ul, 40 ng DNA, room temperature …

stoichiometry N [1]: 2 | stoichiometry N [2]: 2 | stoichiometry N [3]: 2
Substance: AtsR (NCgl0886), native protein as run on the size exclusion column (natural protein)

Substance: GCCCACAGCATAGAACTAAAACAGTATGCTTGTCCTGCTAAATGTGAATTTTTAAGAGATTCATCCCACACAATTACGAAAAAACCAGATTGCCCACAAATTAGTCTTCGAACTTTAATCAACACCACACCCAAAGCTAAACTTGCGCTCGTTGTGCAAAATTGCATTCAGGCTGAAAAATTCCTAAAGGGACTCCGTCCGAATAATTGGAAAGCCCAGAAGAACAGTCAAC (double strand) [Pncgl0887 (fragment A, 232 bp)]
Kd [4]: 34 nM | binding [4]: binds | Kd [5]: 42 nM | binding [5]: binds

Substance: GTGGGCAGCGGAATTTCCATACCTTTAAGGATATGCACCGGGGGAAACTATGGGGATTTTGGGGGAGGTTGTTACAAAACCATACGTCTGTGAAGATATGACGAGTGCATGCCCAAAATAATGCATAGGAAAAAGGAAGAGTTAACAATGCGTAAAGGAATTTCCCGCGTCCTCTCGGTAGCGGTTGCTAGTTCTATTGGATTCG (double strand) [Pncgl0884 (205 bp)]
binding [4]: no binding

Substance: GTTGTAGACAACAGTCAGATCGCCGTCATCGTATTCATCAAGAATATTGGTGACCTTCTCACGATCCTCTGCGGATATATCCATGGCAGAATCTGCATCAAAAGTCATCGAGATGATGCCGGTAGTCTCATCTGCACTCAGTGGACTAATCGACTCAATATCTGCGGCGATCTTCTCCGCAGGTACACCCTGAGCCTCCAGGGCTGGGGTCATCTGAGCAGCCACACCCTG (double strand) [ncgl0887 coding region control (232 bp)]
binding [4]: no binding

stoichiometry N [6]: 2
Substance: His6-AtsR (natural protein)

stoichiometry N [7]: 2
Substance: His-tag-free AtsR:C123SC187S (natural protein)

Substance: Pncgl0887 (fragment A, 232 bp)
Kd [8]: 34 nM | Kd [9]: 42 nM
